This assay addresses T1, TNFR1 (Homo sapiens, UniProt P19438).
T1 chain: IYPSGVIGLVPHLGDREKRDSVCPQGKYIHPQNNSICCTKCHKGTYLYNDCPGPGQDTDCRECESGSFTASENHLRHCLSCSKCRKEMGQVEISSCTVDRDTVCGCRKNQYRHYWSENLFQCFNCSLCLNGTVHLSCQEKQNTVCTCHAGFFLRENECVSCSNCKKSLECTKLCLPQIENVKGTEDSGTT
The assay can be described thus: yeast display SC50.

B1: K33Y (designed binder)
chain: SMEEEVEKAAKEYEKKKKEAIEKHLEKLKAKDYEAAERFLKELEEAAKEYAKDEAKTMSEEEAKRRAKKYKEKVLLSELSEEEQKEIKEAEEKLVRTILKYVEEAAK
Turning to B1, the “apparent Kd (screen)” value came to 0.593 nM.

B2: K73T (designed binder)
chain: SMEEEVEKAAKEYEKKKKEAIEKHLEKLKAKDKEAAERFLKELEEAAKEYAKDEAKTMSEEEAKRRAKKYKETVLLSELSEEEQKEIKEAEEKLVRTILKYVEEAAK
Consider B2, for which the “apparent Kd (screen)” value was 13.8 nM.

B3: Y70L (designed binder)
chain: SMEEEVEKAAKEYEKKKKEAIEKHLEKLKAKDKEAAERFLKELEEAAKEYAKDEAKTMSEEEAKRRAKKLKEKVLLSELSEEEQKEIKEAEEKLVRTILKYVEEAAK
Regarding B3, the “apparent Kd (screen)” value was found to be 8.56 nM.

B4: V74A (designed binder)
chain: SMEEEVEKAAKEYEKKKKEAIEKHLEKLKAKDKEAAERFLKELEEAAKEYAKDEAKTMSEEEAKRRAKKYKEKALLSELSEEEQKEIKEAEEKLVRTILKYVEEAAK
Consider B4, for which the “apparent Kd (screen)” value was found to be 16.7 nM.

B5: F39L (designed binder)
chain: SMEEEVEKAAKEYEKKKKEAIEKHLEKLKAKDKEAAERLLKELEEAAKEYAKDEAKTMSEEEAKRRAKKYKEKVLLSELSEEEQKEIKEAEEKLVRTILKYVEEAAK
In the case of B5, the “apparent Kd (screen)” value was found to be 1.16 nM.

B6: E5C (designed binder)
chain: SMEECVEKAAKEYEKKKKEAIEKHLEKLKAKDKEAAERFLKELEEAAKEYAKDEAKTMSEEEAKRRAKKYKEKVLLSELSEEEQKEIKEAEEKLVRTILKYVEEAAK
Consider B6, for which the “apparent Kd (screen)” value was determined as 1.05 nM.

B7: I21R (designed binder)
chain: SMEEEVEKAAKEYEKKKKEAREKHLEKLKAKDKEAAERFLKELEEAAKEYAKDEAKTMSEEEAKRRAKKYKEKVLLSELSEEEQKEIKEAEEKLVRTILKYVEEAAK
Consider B7, for which the “apparent Kd (screen)” value was 0.869 nM.

B8: H24N (designed binder)
chain: SMEEEVEKAAKEYEKKKKEAIEKNLEKLKAKDKEAAERFLKELEEAAKEYAKDEAKTMSEEEAKRRAKKYKEKVLLSELSEEEQKEIKEAEEKLVRTILKYVEEAAK
B8: the “apparent Kd (screen)” value came to 0.446 nM.

B9: E44N (designed binder)
chain: SMEEEVEKAAKEYEKKKKEAIEKHLEKLKAKDKEAAERFLKELNEAAKEYAKDEAKTMSEEEAKRRAKKYKEKVLLSELSEEEQKEIKEAEEKLVRTILKYVEEAAK
For B9, the “apparent Kd (screen)” value came out at 1.05 nM.

B10: K29S (designed binder)
chain: SMEEEVEKAAKEYEKKKKEAIEKHLEKLSAKDKEAAERFLKELEEAAKEYAKDEAKTMSEEEAKRRAKKYKEKVLLSELSEEEQKEIKEAEEKLVRTILKYVEEAAK
In the case of B10, the “apparent Kd (screen)” value amounted to 0.446 nM.

B11: E60Y (designed binder)
chain: SMEEEVEKAAKEYEKKKKEAIEKHLEKLKAKDKEAAERFLKELEEAAKEYAKDEAKTMSYEEAKRRAKKYKEKVLLSELSEEEQKEIKEAEEKLVRTILKYVEEAAK
In the case of B11, the “apparent Kd (screen)” value came out at 0.718 nM.

B12: E49F (designed binder)
chain: SMEEEVEKAAKEYEKKKKEAIEKHLEKLKAKDKEAAERFLKELEEAAKFYAKDEAKTMSEEEAKRRAKKYKEKVLLSELSEEEQKEIKEAEEKLVRTILKYVEEAAK
For B12, the “apparent Kd (screen)” value stood at 9.41 nM.

B13: L76W (designed binder)
chain: SMEEEVEKAAKEYEKKKKEAIEKHLEKLKAKDKEAAERFLKELEEAAKEYAKDEAKTMSEEEAKRRAKKYKEKVLWSELSEEEQKEIKEAEEKLVRTILKYVEEAAK
For B13, the “apparent Kd (screen)” value stood at 3 nM.

Values taken from publication PMC12416549 (2024).
